Kd data for four molecules are collected here from paper PMC3192115, “Analysis of RNA Binding by the Dengue Virus NS5 RNA Capping Enzyme”.

“And” between values parts separate entries of the source, which are not always exact repeats. Equal values may be shown once.

Series [1] addresses T1, NS5 capping enzyme WT (West Nile) (West Nile virus) (UniProt Q9Q6P4).
T1 sequence: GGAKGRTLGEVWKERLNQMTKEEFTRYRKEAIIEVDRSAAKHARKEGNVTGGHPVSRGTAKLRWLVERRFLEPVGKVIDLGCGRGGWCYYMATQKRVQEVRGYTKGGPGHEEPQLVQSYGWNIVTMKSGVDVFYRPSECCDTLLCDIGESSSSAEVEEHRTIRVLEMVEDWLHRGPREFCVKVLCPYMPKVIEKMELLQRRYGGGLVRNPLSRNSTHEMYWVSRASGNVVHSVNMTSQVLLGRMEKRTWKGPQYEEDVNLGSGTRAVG
Put plainly: fluorescence polarization. The note with it: 5' diphosphate.

In series [2] the target is T2, NS5 N-terminal capping enzyme WT (dengue 2) (Dengue virus type 2, UniProt P29990 2492-2758). Put plainly: fluorescence polarization; Table 1 gives 3.7 uM, SD 217 nM. To be noted: protein: recombinant; tags: His; label: 3' FAM.
Series [3] has as its target T2, NS5 N-terminal capping enzyme WT …. Put plainly: fluorescence polarization; mock control for GTP experiment. To be noted: protein: recombinant; tags: His; label: 3' FAM.
Series [4] has the same target. Description: fluorescence polarization. The note with it: protein: recombinant; tags: His; label: 3' FAM. Background: Fluorescence polarisation rises when a labelled molecule tumbles more slowly, as on binding a larger partner.
For series [5], the target named is NS5 capping enzyme WT (yellow fever) (Yellow fever virus, UniProt P03314 2507-2774). Put plainly: fluorescence polarization. The note with it: protein: recombinant; label: 3' FAM.
NS5 capping enzyme WT (yellow fever), sequence (P03314 2507-2774): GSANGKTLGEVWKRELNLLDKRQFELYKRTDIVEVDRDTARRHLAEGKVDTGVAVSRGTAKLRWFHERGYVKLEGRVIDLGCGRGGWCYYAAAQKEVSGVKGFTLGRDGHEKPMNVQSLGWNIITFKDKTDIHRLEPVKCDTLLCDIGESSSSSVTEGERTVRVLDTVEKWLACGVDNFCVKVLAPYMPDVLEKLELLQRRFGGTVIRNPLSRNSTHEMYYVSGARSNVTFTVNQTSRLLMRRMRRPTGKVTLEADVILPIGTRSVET

T2 sequence (P29990 2492-2758): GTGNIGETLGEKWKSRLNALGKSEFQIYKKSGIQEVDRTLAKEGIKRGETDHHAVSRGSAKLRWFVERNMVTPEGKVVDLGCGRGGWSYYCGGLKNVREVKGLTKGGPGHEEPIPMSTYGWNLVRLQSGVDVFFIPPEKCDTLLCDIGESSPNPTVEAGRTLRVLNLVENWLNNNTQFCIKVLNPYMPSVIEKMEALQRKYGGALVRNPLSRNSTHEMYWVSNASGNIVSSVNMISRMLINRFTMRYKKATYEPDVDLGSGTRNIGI

For orientation: Kd means the equilibrium constant for the complex coming apart. Turning to AGUAA [ppAGUAA-FAM], the Kd in series [1] was 0.136 µM.
For the molecule AGUAA (ssRNA, no 5' phosphate) [AGUAA-FAM], the values for the Kd in series [2] and in series [3] were 3.8 ± 0.2 µM and 3.5 µM, respectively.
For the molecule AGUAA (ssRNA, 5' monophosphate) [pAGUAA-FAM], the Kd in series [4] was 0.967 ± 0.088 µM.
Take AGUAA (ssRNA, 5' diphosphate) [ppAGUAA-FAM]: the Kd in series [4] was 0.187 µM and ~0.2 µM; in series [5] it was 0.42 ± 0.02 µM.
